Data as given in patent US11834499.

What was measured:
[1] = target: human Claudin-18.2 (CLDN18.2) (human); test: flow cytometry, 2ug/reaction, trypsin to detach cells; HUPT4 cells; anti-his 2o only 12,730.43; same construct on ARK2 cells 37,777.38 (2o only 35,124.48)
CD16A [2] = target: CD16A (UniProt P08637); test: flow cytometry, 2ug/reaction; Jurkat-Lucia-NFAT-CD16 cells; anti-his 2o only 18,863.83
CD16A [3] = target: CD16A (UniProt P08637); test: flow cytometry; Jurkat Lucia CD16A; only anti-his 2o AF647 652513 7,290.88
[4] = target: human Claudin-18.2 (CLDN18.2) (human); test: flow cytometry; HUPT4 (CLDN18.2+); only anti-his 2o AF647 652513 12,046.33; same construct on ARK2 (CLDN18.2-) 39,787.16 (2o only 36,416.11)
CD3 on Jurkat cells = CD3 on Jurkat cells (UniProt P07766); test: flow cytometry, Jurkat cells, anti-His secondary; A01 Jurkat-2o alone 1,501.76
Chain of CD3 on Jurkat cells (P07766 23-207 limits assumed): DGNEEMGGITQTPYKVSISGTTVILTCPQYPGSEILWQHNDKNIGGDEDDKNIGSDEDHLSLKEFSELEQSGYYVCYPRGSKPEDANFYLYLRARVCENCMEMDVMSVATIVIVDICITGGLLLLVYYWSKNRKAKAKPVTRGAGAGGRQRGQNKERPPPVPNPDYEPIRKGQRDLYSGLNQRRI

Chain of CD16A (P08637 17-254 limits assumed, form in doubt): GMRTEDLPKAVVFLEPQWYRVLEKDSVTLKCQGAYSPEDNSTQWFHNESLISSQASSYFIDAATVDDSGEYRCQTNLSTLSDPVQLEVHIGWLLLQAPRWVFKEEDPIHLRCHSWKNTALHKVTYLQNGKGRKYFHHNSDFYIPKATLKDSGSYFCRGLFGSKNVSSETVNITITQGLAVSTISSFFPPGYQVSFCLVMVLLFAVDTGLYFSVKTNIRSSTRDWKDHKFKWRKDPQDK

| flow cytometry signal [1] | flow cytometry signal (CD16A [2]) | flow cytometry signal (CD16A [3]) | flow cytometry signal [4] | FL4-H value printed beside the legend (CD3 on Jurkat cells) | Substance |
| --- | --- | --- | --- | --- | --- |
| 15700 | 76500 | 23500 | 8940 |  | AFM13 (CD16A-CD30 BiTE) his tagged (bispecific antibody) |
|  |  |  |  | 16300 | Blincyto-His tag (bispecific antibody) |
